Assay results as given in article PMC9884275, “Metamorphism in TDP-43 prion-like domain determines chaperone recognition” (Nature Communications, 2023).

What was measured:
Details in all cases: both partners purified
[1] = target: T1, DNAJA2 (human, UniProt O60884 1-412); test: NMR titration; 15N-HSQC at 15 °C, 800 MHz; 25–35 μM 15N/13C-labelled PLD in NMR buffer with 10 mM DTT (5 mM ZnCl2 for DNAJA2); unlabelled JDP co-chaperones added; signal intensity decay shown at 1:2 molar ratio
T1 construct: DNAJA2, human, cDNA cloned into pET28a (GenScript); 5 mM ZnCl2 and 10 mM DTT were added to its NMR samples; also called HSP40 (class A JDP)
T1 sequence (O60884 whole entry): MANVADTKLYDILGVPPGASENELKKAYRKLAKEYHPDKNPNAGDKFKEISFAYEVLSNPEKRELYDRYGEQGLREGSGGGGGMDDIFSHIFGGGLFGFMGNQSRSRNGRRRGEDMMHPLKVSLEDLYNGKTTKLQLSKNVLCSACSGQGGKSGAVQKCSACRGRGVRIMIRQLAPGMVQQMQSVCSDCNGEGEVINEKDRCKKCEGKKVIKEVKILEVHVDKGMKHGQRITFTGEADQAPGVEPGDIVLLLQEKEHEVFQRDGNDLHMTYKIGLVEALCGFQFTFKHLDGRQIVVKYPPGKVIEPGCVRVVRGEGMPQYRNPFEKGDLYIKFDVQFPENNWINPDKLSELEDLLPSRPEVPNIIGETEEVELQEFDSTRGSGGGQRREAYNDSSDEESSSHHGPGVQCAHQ

[2] = target: T2, DNAJC7 (human, UniProt Q99615 1-494); test: NMR titration; 15N-HSQC at 15 °C, 800 MHz; 25–35 μM 15N/13C-labelled PLD with HSP72 and a JDP at 1:2:2 molar ratio (PLD:HSP70:co-chaperone), NMR buffer with 10 mM DTT
T2 construct: DNAJC7, human, cDNA cloned into pET28a (GenScript); also called HSP40 (class C JDP)
T2 sequence (looked up): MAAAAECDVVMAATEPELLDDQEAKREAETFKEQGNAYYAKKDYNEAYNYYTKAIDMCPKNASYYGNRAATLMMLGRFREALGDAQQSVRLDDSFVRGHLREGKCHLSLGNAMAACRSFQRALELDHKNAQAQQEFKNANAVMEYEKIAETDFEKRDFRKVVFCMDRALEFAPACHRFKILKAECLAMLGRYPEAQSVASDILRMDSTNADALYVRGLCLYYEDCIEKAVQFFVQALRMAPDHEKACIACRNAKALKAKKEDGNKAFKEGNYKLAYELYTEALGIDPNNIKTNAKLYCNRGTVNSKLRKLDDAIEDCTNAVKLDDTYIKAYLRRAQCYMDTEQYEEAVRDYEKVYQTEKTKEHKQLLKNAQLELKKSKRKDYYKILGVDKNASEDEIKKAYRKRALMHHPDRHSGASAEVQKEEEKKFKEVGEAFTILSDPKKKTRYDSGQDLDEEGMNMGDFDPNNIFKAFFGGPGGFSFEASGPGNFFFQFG

[3] = target: T3, DNAJB4 (human, UniProt Q9UDY4 1-337); test: as above
T3 construct: DNAJB4, human, cDNA cloned into pET28a (GenScript); also called HSP40 (class B JDP)
T3 sequence (Q9UDY4 whole entry): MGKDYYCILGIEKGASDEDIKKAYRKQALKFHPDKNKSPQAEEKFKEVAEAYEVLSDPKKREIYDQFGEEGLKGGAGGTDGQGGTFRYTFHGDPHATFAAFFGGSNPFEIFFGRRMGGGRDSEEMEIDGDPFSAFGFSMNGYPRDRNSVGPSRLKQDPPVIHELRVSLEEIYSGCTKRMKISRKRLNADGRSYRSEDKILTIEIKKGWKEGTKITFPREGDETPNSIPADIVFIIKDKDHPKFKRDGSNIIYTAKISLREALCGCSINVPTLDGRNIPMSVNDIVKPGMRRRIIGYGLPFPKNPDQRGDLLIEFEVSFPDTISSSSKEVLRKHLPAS

[4] = target: T4, DNAJB1 (human, UniProt P25685 1-340); test: as above
T4 construct: DNAJB1, human, cDNA cloned into pET28a (GenScript); also called HSP40 (class B JDP)
T4 sequence (P25685 whole entry): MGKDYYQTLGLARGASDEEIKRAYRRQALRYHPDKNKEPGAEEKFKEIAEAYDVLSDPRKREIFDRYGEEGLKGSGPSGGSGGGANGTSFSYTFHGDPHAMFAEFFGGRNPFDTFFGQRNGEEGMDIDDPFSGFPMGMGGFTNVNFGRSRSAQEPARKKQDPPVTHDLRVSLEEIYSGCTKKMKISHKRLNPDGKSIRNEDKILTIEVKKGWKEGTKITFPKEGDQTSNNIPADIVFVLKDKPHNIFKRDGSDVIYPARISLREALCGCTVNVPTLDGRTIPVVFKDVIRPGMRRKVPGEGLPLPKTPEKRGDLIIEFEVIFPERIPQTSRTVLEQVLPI

- binding result [1]: binds
- binding result [2]: binds
- binding result [3]: binds
- binding result [4]: binds
B1: TDP-43 prion-like domain (fragment 274-414 of human TDP-43) (domain or fragment, UniProt Q13148 274-414, looked up)
chain: GRFGGNPGGFGNQGGFGNSRGGGAGLGNNQGSNMGGGMNFGAFSINPAMMAAAQAALQSSWGMMGMLASQQNQSGPSGNNQNQGNMQREPNQAFGSGNNSYSGSNSGAAIGWGSASNAGSGSGFNGGFGSSMDSKSSGWGM
notes: TDP-43, human, UniProt Q13148, C-terminal prion-like domain, residues 274-414; 15N/13C-labelled for the NMR experiments; also called PLD; TDP-43 PLD; not shown: Thioredoxin (TXA), N-terminal, cleaved; His6, N-terminal, cleaved
